Laboratory results from the DeepSol protein solubility set.

Experiment: soluble on expression in E. coli; label from the status in PepcDB or PDB records

Sequence | soluble on expression in E. coli
MSLTTIKNIESFVYRYPLSKPVITSFGVMNNRPMLILKITDNNGMYGWGEVWCNFPLTGAEHRAKLIDNIFKPLLANFDIITPEKTYEYLVSKTKILSIQSGEPGPIAQCIAGIDIAVHDLIGKVENISLWKKFGGNKNIIPCYASGINPTKPEVTVKDAIKKGYSSFKLKIGFGIKKDLGNIKEIKNILPEKSSLMVDANQAWNLNEAIEACRLLEDLNLCWLEEPIPANSEIKEWIHLKDSTKITLAAGENFNSHREFSSFFQNKVFGYLQPDIAKWGGFTECSKLIKNIIQNKITYCPHYLGGGIGLVASAHLLSASNGKGILEVDINDNPLRSDIVGDIFEKNSGFATLSDIPGLGFEPNLKTISKYLVAHEGHHHHHH | soluble
MSIMKQRLPLGEFSSSKINKLAIANIADASEPRNHGENNVGTVCLPSIKSLMVSPEVYENTKSLPVPLMRSSGGGMACASKSSCQDGISTKTTSRDYSELSKKLQIRLQFAYYKYKTKQTDKNFTDLKSKHSITRPSKVATHSKSEPLTRRRKLVLSQGHYKTPARSKIKTPSSICSHDNTSSFTSFRGVSESSSTTADMNVADTTTPIRNNINTKHSNSHNRTLYQRQETPTSIKAAKSLIHLFTSNQ | not soluble
MSQQKIGVLLVNLGTPEHPTAPAIRKFLKPFLADSRVIDYPKFLWKPILYSFILPFRPRKVKPLYQHVWTNEGSPLYANAIGQEKALQAHFDQSEHGVLVRATMAYSKPSISDVVDEFLKEKVAKMIVLPLFPQYSSTTTAAIFDAFAQSLKKKKDIPPFDFIHHYYERPSYIQALAQTIHLQENEHLLFSFHGIPQRYVIEGDYYTEHCQQTAQLIAVAAGLSEEQWQVSYQSRFGPEEWTRPYTDETLIQLPKQGKKKLAVICPGFAADCLETLEEIDITNRKHFMAAGGQAYRYIPALNASPAHIQLLAELISERL | not soluble
MGSDKIHHHHHHMADRASEAELIKLPVSKLTRGMFVAAIENNGKVAVANAGQIKSRETIAKLVKSGIHHVWVDAERSSDESGLKPKSAQGSAAPAAGAVRPSRANRDLRQTQAKKLLHEAKELIRKVLSETFEGKAIEVKPFEALADNMIESIMLDDDALKCVSALRDKDAYLLEHSVNVAFLLVTFGKYLKLDRETLKQMAVGGVLHDIGKIKVDNKILHKPGKLTPEEFEHMKLHQFYAMDIMSEASALSQISKDVCLMHHEKLDGRGYPRGLKGDEIPLHGRMSCIVDIFDALTATRCYKEAMSPAAAFKILLSLTPFHLDTDLVYEFIRCIGVYPVGSLVELSDGRVGIVWESKDRDALSPVVKCFYSLKHKRYTEVNFVDLLKSDLNIERGVSPSSLDVDPKPFY | not soluble
MGSDKIHHHHHHMQSLPHDVVGYARDYRDGYVSVRHRHPRHQLIYAISGLMMAETDAMSHAIPPGYGLIVPAQQPHEIRMIGAVRLQSLYVRAGLPRADALARCRLVTISPLLAQLIAALCEMANPWPMPPRALHLSQLILIELLAAPVSPLALPYPTDPRLRRVCDGLIATPASPRSLDDWAAEAGMSRRTFSRHFQLETGLSFGKWAQRLRCQAALRGLAKGRPAARVARELGYANAYTMAAMMRRMT | not soluble
AAKHHFDEIHYLDIVDCNGGDHHKAFATNFNPEINIREITQKGKYWENGRWIETEPQEIHKTLTYPSIGERESYLLYHEELESLVKNFPTIKRARFWMTFGQEYLTHLRVMQNIGMTRIDPIMYNGVEIVPIQFLKAVLPNPGDLGENYTGETSIGCRIRGIRDGKERTYYIWNNCSHEVAYKETGTQG | not soluble
SDIEAYFERIGYKNSVNKLDLATLTEVLQHQMRAVPFENLSMHCGEAMCLGLEATFDHIVRKKRGGWCLQVNHLLYWALTKMGFETTMLGGYVYITPVNKYSSEMVHLLVQVTISDRNYIVDSAYGSSYQMWEPLELTSGKDQPQVPAIFRLTEENGTWYLDQIRREQDVPNQEFVNSDLLEKSKYRKIYSFTLEPRTIEDFEYVNTYLQTSPASVFVSTSFCSLQTSEGVCCLIGSTLTSRRFSYKDNVDLVEFKSLTEEEIEDVLKTTFGISLEKKFVPKHGELVFTI | soluble
MGSDKIHHHHHHMVTYAGKLVLAPMVRAGELPTRLMALAHGADLVWSPEIIDKKLIQCVRKENTALQTVDYVVPSKVQTRPETLVFRTYPKLESSKLIFQIGSASPALATQAALKVINDVSGIDINAGCPKHFSIHSGMGSALLRTPDTLCLILKELVKNVGNPHSKPISVKIRLLDTKQDTLQLVKRLCATGITNLTVHCRKTEMRNREQPITDYIAEIYEICQANNVSLIVNGAIRDRSHFHDLQANHWKNTNIGGMIAECAERDPTVFDHTSKPSEDGPSWVVACREFIQWATKFDNHIGNTKYMLSRIVPGKSVFFQYFARCKSPEEVSFVLKQLNDDGSAQTDPSEYLENCRAQEKALKNANAIAKQKRKQTDHIGSDTKKQKVVPLPTDI | not soluble
MRGYFIVLEGIDGSGKTTQAKLLAEWFEDKGYEVLLTKEPTDSELGKLIRRIILEESVIDGSKISYEAEALLFAADRAEHVKKIILPALSEGKVVICDRYFYSSLAYQWARGLDLNWLIQVNSFAPRPDLAILLDLPVKESLRRIKLRGTLTEFDKIVELQRKVRHNYLKLAEMFPEMRIVNALSSIEDIHSDIVALVKHELLGL | soluble
MKRVFCPKCDGAITISRETLSQASPNGSLSLLCPHCCHQLRIRLVSKSDNSHNHKTEQEEQELAQELDRSRGYIVVLENIFGYRQEFALREGDNGIGRRNKDSVVDIAVLTGDPSMGRHHCILRVTPKKDGSFLYSIADDDSLVGTFVGGRLLDKKEWCRLNDGDVITMGATSAILYTSDHKDTESEEKN | not soluble
FERGHEFSFAQAVRLLRLLAAAQGREGACPCGVRVRPELSLSFPVADVARIERQSDGYRITARFLGLYGPSSPLPTFYTEELIDEEREDGSASRDFLDVLSHRIFDLWVAGDAKYRLFNRVVEDGSGDDLERLFCLAGLDLAQGQTVLPESGRWLRYVGLLGQVPRSALGLRTMVADALGVPVEVIPCQHRQVSIPPGQRLAVGIAASSLGIDTVVGTNLDDRLGMFRLCLGPLSREQFADLLPGAPGRSTLDLIVELYLDAPLAWDVELTLAPGETPEARLGACRGARVGWDTWLGV | not soluble
MGSDKIHHHHHHEEGTSPINENTSNLPVSATADAQLKFAKLLSQAASGSIEVRNFLKKEALVQFDNDYDIFYPLIKDKKVFGNQSFRDILLSYCKEENELSQIEQSLPLLNIMVPDLTLFWDFNATTWDTSDKEISVLCRDDKNNTLYENGENIGNMTNGDIPGFPCLVVKNNERMKITSVNTRSGEATYEFISDAFDGSKKVQTRHYDADNDLEATEDLNKYVSKDVVATAINAWREFKNVPNACQRDYIYYGINKTNTPGSLNRNIREKLYRFRISATAFGRIADADGDQRLQDLTQTKRYLSNEEILQNIWTDGNFEFRFKSYIAGETNKDAMEHLLTFSVKAKDVFSIEKIHLHHKNGTAFRQSKNFYSVDINNLRSKWIYPEKLEPNKDNQVFTLPWDLYNKALSIHMYVEEFDVDQTIEKTITVVNEFTNKADFSIEGGGSIDSVKLSAKLGYGFSHTNTTTSSTKVTTTVGSDELGTLSFFFYDPIIRAESNNTYKLYDVSSGDVTATILPINLIITR | not soluble
MEDPVTGPEEVSGQEQGSLTVQCRYTSGWKDYKKYWCQGVPQRSCKTLVETDASEQLVKKNRVSIRDNQRDFIFTVTMEDLRMSDAGIYWCGITKGGLDPMFKVTVNIGPVPT | soluble
MEQLKCHVKQYAWGKYGEESEVARLFADGHESFQIDQKTPYAELWMGTHPDGPAQLKKCSTKLSTYLAKNPSPLTNNNSAKNIHLPFIMKVMSIRTTLSLQVHPTKEQARRLHEKDPIHYPDRNHKPELAYALTRFELLCGFRPAREILQNLQTFPSFRLLFGGDTYAKPLEDCIQQMKDLNSVDQKSTEFKDSRKYLEDCFRFMMVPERNDVHDLIAKLLSELDNGLRGAVEEVTVGVIRKMSVDFPNDIGIFSPLFLNHMILEPGQCCYYAAEELHAYLSGECVECVGCSNNTIRAAMTPKYIDRDALCSVLNYKMTEQKDYLVPENKLTECVDMYAPDCKDFQLHRIRVGTHQTVEEMMIPTLDCASIFVVVSGKGTLEEATIDNQLIGQYEVKRGDIFYIPPKHNIRFSSCSEPLEGYRTFSYEMGPDHDTRLVTPVQNAVPTITEKMFKLDADMEEAITAVV | not soluble
LSWKRCAGCGGKIADRFLLYAMDSYWHSRCLKCSSCQAQLGDIGTSSYTKSGMILCRNDYIRLFGNSGACSACGQSIPASELVMRAQGNVYHLKCFTCSTCRNRLVPGDRFHYINGSLFCEHDRPTALINGHLNSGGSGGSGGSGGDVMVVGEPTLMGGEFGDEDERLITRLENTQFDAANGIDDETRESGSIEF | soluble
MGSDKIHHHHHHMRVGIIGGGFGLAVQAPIINTHPKMNVSAISTMIRHQVPKNLSTADDSPVHYTDWTKMLDLEELDLVFVSSLPIYHFEMVKYALNKGIHVVCEKPFTMNSVESEELLRLSSDTNTKVFIDFEWRYHPARQKVKELISEVGDILHFEYHISASQYQKLQTNKRGWMGEKQKFGGMLGALGTHMVDCLRWLIQDEIITINGFIHTHVPEGPEELRDSDDAFFIHGKIEGNCTFSIQLISGIHHGFGSNLKVFGSLGTINLIDDKTLFFGKASESLEEIKIETYTQTIPPLSSEAKAYYPAFYPFLDKVYENIIFNKSDKDLPTIVDGHENQIIIDNVLSN | not soluble
MSLKNENKMIIYQVFTRLFGNNNNHCIYNGDISQNGCGKMADFTAKALGEIKKLGATHIWYTGIIEHASQTDYRRYNIRPDHPAIVKGKAGSPYAIKDYYDVDPDLATDVPGRMKEFENLVSRTHRAGLKVIIDFVPNHVARQYHSDAQPDGTTQLGANDDPNYSFSPYNNFYYIPQSELHGQFDMTGNALEPYHEFPAKATGNNRFDAYPNINDWYETVKLNYGVDYQNGGTCHFSPTPDTWTKMLDILLFWSSKNIDGFRCDMAEMVPVEFWEWAIPQVKQEYPNIIFIAEVYNPHEYKNYLFRGKFDFLYDKVGLYDTLRNVACGYDSATAITRSWQSLGGIEKRMLNFLENHDEQRIASDFFAGDPRKGVPALIVSACMNTNPMMIYFGQEFGEMGMDSEGFSGRDGRTTIFDYWSVDTIRRWRNEGKFDGKMLTEEQKHLYAIYQRVLTLCNEEQAISNGVFFDLMYANENGWRFNEHKQYTFMRKYKNELLFIVVNFDNQPVNVAINVPSHAFDFLQIPQFDSYKAVDLLTDKVEEISLLPYKATEIALGAYTGKILKIKEGHHHHHH | soluble
MSLNSEWGKFALWLKHQRISPAELLVPQPQEKLTGWSDPRISQERILGLLARGHSLALAVDKWQRAGLWILTRGDADYPVRLKNRLRTDAPPVLFGCGNKALLQAEGMAIVGSRDAPTDDLRYTQQLAAKLAQQGICVISGGARGIDECAMASALEAGGTAVGVLADSLLKTSTLVKWREGLIAGNLVLISPFYPEVRFTVGNAMARNKYIYCLAESAMVVRAGMTGGTITGAMEALKHQWLPVQVKPNQDMQSANSRLVENGASWSAEQAENVTIRLPDVPGLMYDRAEGHHHHHH | soluble
MKCPFCNPIKENILYEDDTIRILLDNYPANPGHLLIVPRRHVTKLEELSEGEKASLLRGIEIAIEALKKTLNPDGFNVGINIGKAAGQTVEHLHIHVIPRFNNDCKYPKGGIRKAVLDVKDENLEDEERWTKNRLPREKVEELRRALHGG | soluble
